For experiment [1], the target named is thiopeptolide Ac-Pro-Leu-Gly-thioester-Leu-Leu-Gly-OEt (not provided).
Experiment [2] addresses proteoglycan.

On to “human stromelysin catalytic domain protein (enzyme)”, for which the hydrolysis of the thiopeptolide substrate (Km, kcat) in experiment [1] is 270 µM. Further, the Proteoglycan Degradation (µg of Chondroitin Sulfate/h) (µg of Chondroitin Sulfate/h) in experiment [2] is 8.

These data come from patent US6284513.
